This experiment has as its target His-GB1-tagged C-domain of CRT_(Del52) (human) (UniProt P27797). Briefly: non-reducing SDS-PAGE with immunoblot. A general note: Immunoblotting shows a protein as a band on a membrane.

One substance from paper doi:10.1101/2020.09.13.295485 can be followed below.

For “His-GB1-tagged C-domain of CRT_(Del52) (from UniProt P27797 357-366) (domain or fragment)”, the stoichiometry N is 2.

Broadly, the stoichiometry N is the number of molecules, sites or subunits per partner or assembly.
